Experiments:
[1] = test system: cancer patients having progressive disease; settings: human, in vivo; cited from earlier work
[2] = in vivo; cited from earlier work
[3] = test system: ABAE cells with exposed PS; experiment: Binding of monomeric and dimeric hβ2GPI to LPC-treated cells; assay type: cell-based, bovine; settings: 200 μM LPC, DMEM+10% FBS
Experimental: FIG. 24A, FIG. 24B, FIG. 24C and FIG. 24D. An artificial dimeric β2GPI construct binds endothelial cells with exposed PS. ABAE cells were incubated for 30 min with 200 μM LPC in DMEM+10% FBS plus purified hβ2GPI-monomer (FIG. 24A), hβ2GPI-dimer (FIG. 24B), or a mutant hβ2GPI-dimer unable to bind lipid (FIG. 24C). Cells were then washed and incubated with anti-β2GPI to detect hβ2GPI monomers and dimers. […] Cells were then washed, fixed and stained with fluorescent markers. The cytoskeleton appears red, nuclei appear blue, and hβ2GPI-monomers and hβ2GPI-dimers appear green. FIG. 24D, the binding area of hβ2GPI-monomers and hβ2GPI-dimers was quantified using MetaVue software. All values are relative to the binding of hβ2GPI-dimers to non-LPC treated cells, which was set to one.
In these studies, an artificial β2GPI dimer is used, which was generated by fusing hβ2GPI to the C-terminus of the apple 4 dimerization domain of factor XI (Lutters et al., 2001). […] Nonetheless, binding of this dimer to cells with exposed PS validates the use of Fc-β2GPI dimers to bind to PS-positive cells.
ABAE cells were treated with LPC to induce PS exposure and incubated with purified hβ2GPI, hβ2GPI-dimer, or a mutant hβ2GPI-dimer containing a disrupted lipid binding domain. As expected, binding of the monomeric hβ2GPI to LPC-treated ABAE cells was negligible (FIG. 24A).

[4] = test system: ABAE cells with exposed PS; experiment: Live-cell binding assay on LPC-treated endothelial cells; assay type: cell-based, bovine
Experimental: Adult bovine aortic endothelial (ABAE) cells were maintained in DMEM supplemented with 10% FBS and 2 mM L-glutamine. ABAE cells were removed from subconfluent cultures by brief exposure to 0.25% trypsin/0.02% EDTA, and 8-well chamber slides were seeded with 2×10^4 cells/well. Following overnight culture, cells were washed gently with PBS and treated with 200 μM lysophosphatidylcholine (LPC) to induce PS exposure.
PS exposure was determined by immunofluorescence staining. Cells were washed thoroughly in PBS, fixed in 4% paraformaldehyde (w/v), and incubated with a biotin-conjugated anti-mouse secondary antibody. Next, cells were incubated with FITC-conjugated streptavidin (Jackson Immunoresearch) to detect antibody binding. Cells were then permeablized with 0.1% Triton-X100 in PBS and counterstained with Texas Red-conjugated phalloidin (Molecular Probes, Eugene, Oreg.), and 4′, 6-diamidino-2-phenylindole (DAPI; Molecular Probes). Images were captured using a Coolsnap digital camera (Photometrics, Tucson, Ariz.) mounted on a Nikon microscope and processed with MetaVue software (Universal Imaging Corporation, Downingtown, Pa.).
The area of antibody binding was determined using MetaVue image analysis software, which is able to quantify the number of illuminated pixels in an image. Images of FITC fluorescence were used to quantify antibody binding. Corresponding images of DAPI fluorescence were used to normalize the FITC images for the number of cells present in the field. A small FITC/DAPI ratio indicates a small antibody binding area, whereas a large FITC/DAPI ratio indicates a large binding area. The FITC/DAPI ratios were used to determine increases or decreases in antibody binding area relative to a basal amount of antibody binding under the selected conditions. Five images at 200× magnification were used for each analysis. Data are presented as average relative FITC/DAPI ratios with error bars representing the standard deviation.
Cells were then washed, fixed, and stained with fluorescent markers to visualize binding of antibody to the cell surface.

[5] = Fc-mβ2GPI binding to PS-coated plates; settings: cell culture supernatants #8 and #18
Experimental: FIG. 20. Fc-mβ2GPI binds PS on PS-coated plates. In this binding assay, a microtiter plate was coated with PS and blocked with 1% OVA. Serial dilutions of Fc-mβ2GPI cell culture supernatants were performed in 1% OVA. #8 and #18 are two different clones of Fc-mβ2GPI. Binding was detected with anti-mouse IgG-HRP.
Fc-mβ2GPI was able to bind to PS on PS-coated plates.

[6] = Fc-mβ2GPI binding to phospholipids in 10% FBS
Experimental: FIG. 21. Fc-mβ2GPI binds anionic phospholipids. This assay measures Fc-mβ2GPI binding to phospholipids in 10% FBS. The microtiter plates were coated with various lipids, as indicated, and blocked with 1% OVA. Serial dilutions of Fc-mβ2GPI cell culture supernatant were performed in 1% OVA. Binding was detected with anti-mouse IgG-HRP.

ABAE cells = experiment: Fc-mβ2GPI binding to cells with exposed PS; assay type: cell-based, bovine
Experimental: FIG. 22A, FIG. 22B and FIG. 22C. Fc-mβ2GPI detects PS exposed on naturally apoptotic ABAE cells. 2×10^4 ABAE cells were seeded onto 8-well glass chamber slides in DMEM+10% FBS overnight at 37° C. The next day, cells were washed and incubated with 2aG4 (FIG. 22A), supernatant from Fc-mβ2GPI transfected CHO cells (FIG. 22B), or mock transfected cells (“control supernatant”, FIG. 22C). 2aG4 and Fc-mβ2GPI were detected with a FITC-labeled secondary antibody (green). The cytoskeletons and nuclei were counter-stained with Texas Red-labeled phalloidin and DAPI (blue), respectively. Arrows highlight apoptotic cells.
FIG. 23A and FIG. 23B. Fc-mβ2GPI detects PS exposed on LPC-treated ABAE cells. 2×10^4 ABAE cells were seeded onto 8-well glass chamber slides in DMEM+10% FBS overnight at 37° C. The next day, cells were washed and incubated supernatant from Fc-mβ2GPI transfected CHO cells. Fc-mβ2GPI was detected with a FITC-labeled secondary antibody (green). The cytoskeletons and nuclei were counter-stained with Texas Red-labeled phalloidin and DAPI (blue), respectively. FIG. 23A and FIG. 23B each depict binding of Fc-mβ2GPI, seen as small pinpoints of green staining.

NC(=O)c1nnn(Cc2cc(Cl)c(C(=O)c3ccc(Cl)cc3)c(Cl)c2)c1N [CAI, carboxyamidotriazole]
patients with disease stabilization [1]: 49%

monophosphoryl lipid A [MPL]
dose shown to be safe for human use [2]: 100 μg/m^2

B1: hβ2GPI: Human β2GPI purified from human plasma (protein)
chain: GRTCPKPDDLPFSTVVPLKTFYEPGEEITYSCKPGYVSRGGMRKFICPLTGLWPINTLKCTPRVCPFAGILENGAVRYTTFEYPNTISFSCNTGFYLNGADSAKCTEEGKWSPELPVCAPIICPPPSIPTFATLRVYKPSAGNNSLYRDTAVFECLPQHAMFGNDTITCTTHGNWTKLPECREVKCPFPSRPDNGFVNYPAKPTLYYKDKATFGCHDGYSLDGPEEIECTKLGNWSAMPSCKASCKLPVKKATVVYQGERVKIQEKFKNGMLHGDKVSFFCKNKEKKCSYTEDAQCIDGTIEVPKCFKEHSSLAFWKTDASDVKPC
binding to LPC-treated ABAE cells [3]: negligible
mediation of ch3G4 binding to ABAE cells with exposed PS ([4]; 2 μg/ml, LPC): able to mediate binding
binding to endothelial cells with exposed PS ([4]; 10% MS and LPC, absence of ch3G4): does not bind endothelial cells with exposed PS in the absence of ch3G4

B2: Fc-mβ2GPI: Fc region of mouse IgG2a attached to full length mouse β2GPI (domains I-V); SEQ ID NO:19 (protein, listed as Mus musculus)
chain: EPRGPTIKPCPPCKCPAPNLLGGPSVFIFPPKIKDVLMISLSPIVTCVVVDVSEDDPDVQISWFVNNVEVHTAQTQTHREDYNSTLRVVSALPIQHQDWMSGKEFKCKVNNKDLPAPIERTISKPKGSVRAPQVYVLPPPEEEMTKKQVTLTCMVTDFMPEDIYVEWTNNGKTELNYKNTEPVLDSDGSYFMYSKLRVEKKNWVERNSYSCSVVHEGLHNHHTTKSFSRTPGKTGGRICPKPDDLPFATVVPLKTSYDPGEQIVYSCKPGYVSRGGMRRFTCPLTGMWPINTLRCVPRVCPFAGILENGIVRYTSFEYPKNISFACNPGFFLNGTSSSKCTEEGKWSPDIPACARITCPPPPVPKFALLKDYRPSAGNNSLYQDTVVFKCLPHFAMIGNDTVMCTEQGNWTRLPECLEVKCPFPPRPENGYVNYPAKPVLLYKDKATFGCHETYKLDGPEEAECTKTRTWSFLPTCRESCKLPVKKATVLYQGMRVKIQEQFKNGMMHGDKIHFYCKNKEKKCSYTVEAHCRDGTIEIPSCFKEHSSLAFWKTDASELTPC
binding to PS on PS-coated plates [5]: bind to PS in a concentration-dependent manner
binding to phospholipids [6]: binds to the anionic phospholipids PS, PA, PI and PG, but not to the neutral lipids, PC and SM
binding to LPC-treated ABAE cells (ABAE cells): bind to PS exposed at the cell surface
staining of naturally apoptotic ABAE cells (ABAE cells): stain the apoptotic cells

From patent US20160311886A1, “Constructs Binding to Phosphatidylserine and Their Use in Disease Treatment and Imaging” (Board of Regents, The University of Texas System, priority 2005, published 2016)
